Reference: US20090111745A1 (DOMANTIS, published 2009)

Assays:
rat serum albumin [1] = target: T1, rat serum albumin (rat, UniProt P02770 25-608); assay: phage display selection on albumin (figure legend)
T1 construct: also called RSA

human serum albumin [2] = target: T2, human serum albumin (human, UniProt P02768 25-609); assay: BIACORE SPR screen, column 'Biacore binding'
T2 construct: also called HSA; HAS
Excerpt: (§1) If a significant proportion of the clones in one of the selections were positive in the phage ELISA, then DNA from this selection was cloned into an expression vector for production of soluble dAb, and individual colonies were picked. […] Clones were then sequenced and unique dAb sequences identified.

human serum albumin [3] = target: T2, human serum albumin; assay: BIACORE SPR, albumin on a CM5 chip, dAb in solution
Description: (§2) dAbs that bound serum albumin on a BIACORE chip (Biacore AB) were then further analysed to obtain information on affinity. The analysis was performed using a CM5 chip (carboxymethylated dextran matrix) that was coated with serum albumin. Flow cell 1 was an uncoated, blocked negative control, flow cell 2 was coated with HSA, flow cell 3 was coated with RSA and flow cell 4 was coated with MSA. The serum albumins were immobilised in acetate buffer pH 5.5 using the BIACORE coating wizard which was programmed to aim for 500 resonance units (RUs) of coated material. Each dAb of interest was expressed in the periplasm of E. coli on a 200 mL-500 mL scale and purified from the supernatant using batch absorption to protein A-streamline affinity resin (Amersham, UK) for the VH_{^S} and to protein L-agarose affinity resin (Affitech, Norway) for the Vκs followed by elution with glycine at pH 2.2 and buffer exchange to PBS. A range of concentrations of dAb were prepared (in the range 5 nM to 5 μM) by dilution into BIACORE HBS-EP buffer and flowed across the BIACORE chip.

mouse serum albumin [4] = target: T3, mouse serum albumin (mouse, UniProt P07724 25-608); assay: table of affinities (KD); BIACORE on serum albumin-coated chip according to Example 1;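 further: surface plasmon resonance with dAbs flowed over a chip carrying human, rat or mouse serum albumin, blocked uncoated flow cell as reference, KD from on- and off-rate curve fits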
T3 construct: also called MSA
Description: as §2

human serum albumin [5] = target: T2, human serum albumin; assay: as above
Description: as §2

rat serum albumin [6] = target: T1, rat serum albumin; assay: as above
Description: as §2

mouse serum albumin [7] = target: T3, mouse serum albumin; assay: BIACORE SPR screen, column 'Biacore binding'
Excerpt: as §1

rat serum albumin [8] = target: T1, rat serum albumin; assay: BIACORE SPR screen, column 'Biacore binding'
Excerpt: as §1

rat serum albumin [9] = target: T1, rat serum albumin; assay: affinity (KD) for rat serum albumin; method not stated in the table (BIACORE SPR in Example 1)
human serum albumin [10] = target: T2, human serum albumin; assay: phage display selection on albumin (figure legend)
human serum albumin [11] = target: T2, human serum albumin; assay: table of affinities (KD); BIACORE on serum albumin-coated chip according to Example 1; '+' = detectable binding but weak (estimated KD > 5 µM);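 on result: surface plasmon resonance with dAbs flowed over a chip carrying human, rat or mouse serum albumin, blocked uncoated flow cell as reference, KD from on- and off-rate curve fits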
Description: as §2

B1: DOM7r-15 (other)
VL: DIQMTQSPSSLSASVGDRVTITCRASQSIGRRLKWYQQKPGAAPRLLIYRTSWLQSGVPSRFSGSGSGTDFTLTISSLQPEDFATYYCQQTSQWPHTFGQGTKVEIKR
binding result (rat serum albumin [1]): binds

B2: DOM7h-25 (other)
VH: EVQLLESGGGLVQPGGSLRLSCAASGFTFWKYNMAWVRQAPGKGLEWVSTILGEGNNTYYADSVKGRFTISRDNSKNTLYLQMNSLRAEDTAVYYCAKTMDYKFDYWGQGTLVTVSS
binding result (human serum albumin [2]): binds

B3: DOM7h-23 (other)
VH: EVQLLESGGGLVQPGGSLRLSCAASGFTFYDYNMSWVRQAPGKGLEWVSTITHTGGVTYYADSVKGRFTISRDNSKNTLYLQMNSLRAEDTAVYYCAKQNPSYQFDYWGQGTLVTVSS
Kd (human serum albumin [3]): 500 to 5000 nM
binding result (mouse serum albumin [4]): no binding
Kd (human serum albumin [5]): 900 nM
binding result (rat serum albumin [6]): no binding

B4: DOM7h-24 (other)
VH: EVQLLESGGGLVQPGGSLRLSCAASGFTFHRYSMSWVRQAPGKGLEWVSTILPGGDVTYYADSVKGRFTISRDNSKNTLYLQMNSLRAEDTAVYYCAKQTPDYMFDYWGQGTLVTVSS
binding result (human serum albumin [2]): binds

B5: DOM7h-26 (other)
VH: EVQLLESGGGLVQPGGSLRLSCTASGFTFDEYNMSWVRQAPGKGLEWVSTILPHGDRTYYADSVKGRFTISRDNSKNTLYLQMNSLRAEDTAVYYCAKQDPLYRFDYWGQGTLVTVSS
Kd (human serum albumin [3]): 100 to 500 nM
binding result (mouse serum albumin [4]): no binding
Kd (human serum albumin [5]): 300 nM
binding result (rat serum albumin [6]): no binding

B6: DOM7h-27 (other)
VH: EVQLLESGGGLVQPGGSLRLSCAASGFTFSDYRMSWVRQAPGKGLEWVSTIISNGKFTYYADSVKGRFTISRDNSKNTLYLQMNSLRAEDTAVYYCAKQDWMYMFDYWGQGTLVTVSS
binding result (human serum albumin [2]): binds

B7: DOM7r-7 (other)
VL: DIQMTQSPSSLSASVGDRVTITCRASQYIGRYLRWYQQKPGKAPKLLIYDSSVLQSGVPSRFSGSGSGTDFTLTISSLQPEDFATYYCQQRYSSPYTFGQGTKVEIKR
binding result (mouse serum albumin [7]): binds
binding result (rat serum albumin [8]): binds

B8: DOM7r-18 (other)
VL: DIQMTQSPSSLSASVGDRVTITCRASQWIYKSLGWYQQKPGKAPKLLIYQSSLLQSGVPSRFSGSGSGTDFTLTISSLQPEDFATYYCQQYHQMPRTFGQGTKVEIKR
binding result (rat serum albumin [1]): binds

B9: DOM7r-8 (other)
VL: DIQMTQSPSSLSASVGDRVTITCRASQWIHRQLKWYQQKPGKAPKLLIYYASILQSGVPSRFSGSGSGTDFTLTISSLQPEDFATYYCQQTFSKPSTFGQGTKVEIKR
Kd (mouse serum albumin [4]): 40 nM
binding result (human serum albumin [5]): no binding
Kd (rat serum albumin [6]): 20 nM

B10: DOM7r-3 (other)
VL: DIQMTQSPSSLSASVGDRVTITCRASQYIGRYLRWYQQKPGKAPKLLIYDSSVLQSGVPSRFSGSGSGTDFTLTISSLQPEDFATYYCQQRYMQPFTFGQGTKVEIKR
Kd (mouse serum albumin [4]): > 5000 nM
binding result (human serum albumin [5]): no binding
Kd (rat serum albumin [9]): 12 nM

B11: DOM7r-14 (other)
VL: DIQMTQSPSSLSASVGDRVTITCRASQHIHRELRWYQQKPGKAPKLLIYQASRLQSGVPSRFSGSGSGTDFTLTISSLQPEDFATYYCQQRYRVPYTFGQGTKVEIKR
binding result (human serum albumin [5]): no binding
Kd (rat serum albumin [6]): 50 nM

B12: DOM7h-2 (other)
VL: DIQMTQSPSSLSASVGDRVTITCRASQKIATYLNWYQQKPGKAPKLLIYRSSSLQSAVPSRFSGSGSGTVFTLTISSLQPEDFATYYCQQTYAVPPTFGQGTKVEIKR
Kd (human serum albumin [3]): 10 to 100 nM
Kd (mouse serum albumin [4]): > 5000 nM
Kd (human serum albumin [5]): 70 nM
Kd (rat serum albumin [6]): > 5000 nM

B13: DOM7r-19 (other)
VL: DIQMTQSPSSLSASVGDRVTITCRASQWIYRHLRWYQQKPGKAPKLLIYDASRLQSGVPTRFSGSGSGTDFTLTISSLQPEDFATYYCQQTHNPPKTFGQGTKVEIKR
binding result (rat serum albumin [1]): binds

B14: DOM7r-13 (other)
VL: DIQMTQSPSSLSASVGDRVTITCRASQHIHRELRWYQQKPGKAPKLLIYQASRLQSGVPSRFSGSGSGTDFTLTISSLQPEDFATYYCQQKYLPPYTFGQGTKVEIKR
binding result (human serum albumin [5]): no binding
Kd (rat serum albumin [6]): 80 nM

B15: DOM7r-16 (other)
VL: DIQMTQSPSSLSASVGDRVTITCRASQKIYKNLRWYQQKPGKAPKLLIYNSSILQSGVPSRFSGSGSGTDFTLTISSLQPEDFATYYCQQRYLSPYTFGQGTKVEIKR
Kd (mouse serum albumin [4]): 1000 nM
binding result (human serum albumin [5]): no binding
Kd (rat serum albumin [9]): 1000 nM

B16: DOM7r-4 (other)
VL: DIQMTQSPSSLSASVGDRVTITCRASQWIGRYLRWYQQKPGKAPKLLIYNGSQLQSGVPSRFSGSGSGTDFTLTISSLQPEDFATYYCQQRYLQPYTFGQGTKVEIKR
binding result (mouse serum albumin [7]): binds
binding result (rat serum albumin [8]): binds

B17: DOM7r-17 (other)
VL: DIQMTQSPSSLSASVGDRVTITCRASQKIYNNLRWYQQKPGKAPKLLIYNTSILQSGVPSRFSGSGSGTDFTLTISSLQPEDFATYYCQQRWRAPYTFGQGTKVEIKR
binding result (rat serum albumin [1]): binds

B18: DOM7r-5 (other)
VL: DIQMTQSPSSLSASVGDRVTITCRASQYISRQLRWYQQKPGKAPRLLIYGASVLQSGIPSRFSGSGSGTDFTLTISSLQPEDFATYYCQQRYITPYTFGQGTKVEVKR
binding result (rat serum albumin [8]): binds

B19: DOM7h-3 (other)
VL: DIQMTQSPSSLSASVGDRVTITCRASQWIDTGLAWYQQKPGKAPRLLIYNVSRLQSGVPSRFSGSGSGTDFTLTISSLQPEDFATYYCQQYWGSPTTFGQGTKVEIKR
binding result (human serum albumin [10]): binds

B20: DOM7h-21 (other)
VH: EVQLLESGGGLVQPGGSLRLSCAASGFTFDLYDMSWVRQAPGKGLEWVSSIVNSGVRTYYADSVKGRFTISRDNSKNTLYLQMNSLRAEDTAVYYCAKLNQSYHWDFDYWGQGTLVTVSS
binding result (human serum albumin [2]): binds

B21: DOM7h-22 (other)
VH: EVQLLESGGGLVQPGGSLRLSCAASGFTFSKYWMSWVRQAPGKGLEWVSSIDFMGPHTYYADSVKGRFTISRDNSKNTLYLQMNSLRAEDTAVYYCAKGRTSMLPMKGKFDYWGQGTLVTVSS
binding result (mouse serum albumin [4]): no binding
Kd (human serum albumin [5]): 60 nM
binding result (rat serum albumin [6]): no binding

B22: DOM7r-31 (other)
VH: EVQLLESGGGLVQPGGSLRLSCTASGFTFRHYRMGWVRQAPGKGLEWVSWIRPDGTFTYYADSVKGRFTISRDNSKNTLYLQMNSLRAEDTAVYYCAKSYMGDRFDYWGQGTLVTVSS
Kd (mouse serum albumin [4]): 1000 nM
Kd (rat serum albumin [9]): 5000 nM
Kd (human serum albumin [11]): ~10000 nM

B23: DOM7h-6 (other)
VL: DIQMTQSPSSLSASVGDRVTITCRASQSISSYLNWYQQKPGKAPTLLIYRLSVLQSGVPSRFSGSGSGTDFTLTISSLQPEDFATYYCQQTYNVPPTFGQGTKVEIKR
binding result (human serum albumin [10]): binds

B24: DOM7m-26 (other)
VL: DIQMTQSPSSLSASVGDRVTITCRASQSIYYHLKWYQQKPGKAPKLLIYKASTLQSGVPSRFSGSGSGTDFTLTISSLQPEDFATYYCQQVRKVPRTFGQGTKVEIKR
notes: also called MSA 26
Kd (mouse serum albumin [4]): 60 nM
Kd (human serum albumin [5]): > 5000 nM

B25: DOM7m-16 (other)
VL: DIQMTQSPSSLSASVGDRVTITCRASQSIIKHLKWYQQKPGKAPKLLIYGASRLQSGVPSRFSGSGSGTDFTLTISSLQPEDFATYYCQQGARWPQTFGQGTKVEIKR
notes: also called MSA16
Kd (mouse serum albumin [4]): 50 nM
Kd (human serum albumin [5]): > 5000 nM

B26: DOM7r-27 (other)
VH: EVQLLESGGGLVQPGGSLRLSCAASGFTFWPYTMSWVRQAPGKGLEWVSTISPFGSTTYYADSVKGRFTISRDNSKNTLYLQMNSLRAEDTAVYYCAKSDVLKTGLDGFDYWGQGTLVTVSS
Kd (mouse serum albumin [4]): 250 nM
binding result (human serum albumin [5]): no binding
Kd (rat serum albumin [9]): 250 nM

B27: DOM7h-4 (other)
VL: DIQMTQSPSSLSASVGDRVTITCRASQEIYSWLAWYQQRPGKAPKLLIYNASHLQSGVPSRFSGSGSGTDFTLTISSLQPEDFATYYCQQVIGDPVTFGQGTKVEIKR
binding result (human serum albumin [10]): binds
